# B1: unfused 4-OT (Burkholderia lata) (protein)
# chain 1: PTLEVFLPAGHDDARKAELIARLTGATVDSIGAPIESVRVLLTELPATHIGLGGRSAADGAPPSL
# chain 2: PVIVAILIAGRTDEQKRALIAALSETSASVLDAPLQATRVMIKDIPNTDFGIGGQTARALGR
# B2: fused 4-OT (fused 4-oxalocrotonate tautomerase) (Burkholderia lata) (protein)
# chain: PTLEVFLPAGHDDARKAELIARLTGATVDSIGAPIESVRVLLTELPATHIGLGGRSAADGAPPSLPVIVAILIAGRTDEQKRALIAALSETSASVLDAPLQATRVMIKDIPNTDFGIGGQTARALGR
# Legend:
# Details in all cases: 10 mM Na2HPO4 pH 7.3, 22 °C
# purified protein [1] = substrate: O=C(O)C(O)=Cc1ccccc1; test: purified protein
# purified protein [2] = substrate: O=C(O)C=CC=C(O)C(=O)O; test: purified protein
# [3] = substrate: C=CC=C(O)C(=O)O; test: UV steady-state kinetics, enol-keto tautomerization; format: biochemical, Burkholderia lata
# [4] = substrate: CC(=CC=C(O)C(=O)O)C(=O)O; test: as above; format: biochemical, Burkholderia lata
Protein,Km (purified protein [1]) [µM],kcat (purified protein [1]) [s⁻¹],kcat/Km (purified protein [1]) [M⁻¹ s⁻¹],Km (purified protein [2]) [µM],kcat (purified protein [2]) [s⁻¹],kcat/Km (purified protein [2]) [M⁻¹ s⁻¹],Km [3] [µM],kcat [3] [s⁻¹],kcat/Km [3] [M⁻¹ s⁻¹],Km [4] [µM],kcat [4] [s⁻¹],kcat/Km [4] [M⁻¹ s⁻¹]
B1,346 ± 28,19.3 ± 0.7,56000,148 ± 18,105 ± 6,710000,,,,,,
B2,,,,,,,1330 ± 140,170 ± 12,130000,147 ± 9,72 ± 2,490000

# Reference: article PMC6948721
